Reference: EP2954933A1 (3B Pharmaceuticals GmbH, dated 2015)
*1 amine or outer side, *2 acyl side, *3 side chain or, on linkers, in order; H or OH if unused. [ ]: non-standard residue; d: D form. Lys(DOTA) = Lys with DOTA chelator on the side chain; Oic = O=C(O)[C@@H]1C[C@@H]2CCCC[C@@H]2N1; d2Nal = N[C@H](Cc1ccc2ccccc2c1)C(=O)O; Glutaryl = O=C(CCCC(=O)[*:2])[*:1]; αMeF = C[C@](N)(Cc1ccccc1)C(=O)O; Ttds = non-natural spacer; Orn = NCCC[C@H](N)C(=O)O; 1206 = not defined here; GABA = NCCCC(=O)O

T1: bradykinin B1 receptor (human) (UniProt P46663)
T1 sequence (looked up): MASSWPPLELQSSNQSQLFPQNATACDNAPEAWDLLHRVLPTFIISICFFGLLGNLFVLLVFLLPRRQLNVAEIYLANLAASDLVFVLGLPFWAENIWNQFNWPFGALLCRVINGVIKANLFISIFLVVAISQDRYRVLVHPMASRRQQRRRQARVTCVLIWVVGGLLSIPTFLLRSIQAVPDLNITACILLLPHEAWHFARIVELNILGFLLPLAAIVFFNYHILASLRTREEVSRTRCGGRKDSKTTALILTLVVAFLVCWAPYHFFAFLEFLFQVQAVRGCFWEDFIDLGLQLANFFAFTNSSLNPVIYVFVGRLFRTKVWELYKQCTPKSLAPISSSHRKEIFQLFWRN


Target: T1, bradykinin B1 receptor (human)
Assay: radioligand displacement: 0.35 nM [3H]desArg10-KD on human B1R from CHO cells, compound at 100 nM

Inhibition [at 100 nM, %] | Binder
20% | KRPXGXSPL (position 4 = Hyp (hydroxyproline); position 6 = Cha (cyclohexylalanine); N-terminus of Lys1 acylated with 1206-Glutar-Ttds-Lys(DOTA)-Ttds-GABA- (1206 = non-peptide NTR1 antagonist moiety; DOTA on the Lys side chain); free C-terminal …) [1206-Glutar-Ttds-Lys(DOTA)-Ttds-GABA-Lys-Arg-Pro-Hyp-Gly-Cha-Ser-Pro-Leu-OH]
17% | {1206-Glutaryl-Ttds-Lys(DOTA)-Ttds-GABA}-[Orn]R[Oic]PG[αMeF]S[d2Nal]I-OH (reading uncertain; also: printed as 1206-Glutar-Ttds-Lys(DOTA)-Ttds-GABA-Orn-Arg-Oic-Pro-Gly-Amf-Ser-nal-Ile-OH) [1206-Glutar-Ttds-Lys(DOTA)-Ttds-GABA-Orn-Arg-Oic-Pro-Gly-Amf-Ser-nal-Ile-OH]
